Measured values: patent publication US20210395344A1 (TWIST BIOSCIENCE, published 2021)
Where a chain is given by its changes, count along the chain named.

B1: 1-2 (antibody, V domains shown)
VH: EVQLLESGGGLVQPGGSLRLSCAASGFTFSSQAMSWVRQAPGKGLEWVSAISGSGGGTYYADSVKGRFTISRDNSKNTLYLQMNSLRAEDTAVYYCAKDRRFGEFDPWGQGTLVTVSS
VL: QSALTQPASVSGSPGQSITISCTGTSSGVGSYNLVSWYQQHPGKAPKLMIYEGIKRPSGVSNRFSGSKSGNTASLTISGLQAEDEADYYCCSYAGSSSFVVFGGGTKLTVL
B2: 1-29 (antibody, V domains shown)
VH: EVQLLESGGGLVQPGGSLRLSCAASGFTFSSYAMYWVRQAPGKGLEWVSAISGSAGSTYYADSVKGRFTISRDNSKNTLYLQMNSLRAEDTAVYYCARDTNDFWSGYSIFDPWGQGTLVTVSS
VL: QSALTQPASVSGSPGQSITISCTGTSSDIGSYNLVSWYQQHPGKAPKLMIYEGTKRPSGVSNRFSGSKSGNTASLTISGLQAEDEADYYCCSYAGSRTYVFGGGTKLTVL
B3: 1-27 (antibody, V domains shown)
VH: EVQLLESGGGLVQPGGSLRLSCAASGFTFSSYAMTWVRQAPGKGLEWVSAISGSGGGTYYADSVKGRFTISRDNSKNTLYLQMNSLRAEDTAVYYCASSSSWQFDYWGQGTLVTVSS
VL: B1 VL with G28Y, S31H, I54S, K55R, S97Y, S98T, F99H, V100Y
B4: 1-33 (antibody, V domains shown)
VH: EVQLLESGGGLVQPGGSLRLSCAASGFTFSSYAMIWVRQAPGKGLEWVSAISGSGGSTFYADSVKGRFTISRDNSKNTLYLQMNSLRAEDTAVYYCTRPPYGDYGDYWGQGTLVTVSS
VL: B1 VL with G28D, V35L, G53A, I54S, S97R, S98T, F99P
B5: 1-53 (antibody, V domains shown)
VH: EVQLLESGGGLVQPGGSLRLSCAASGFTFSSYTMSWVRQAPGKGLEWVSVISGSGGSTYYADSVKGRFTISRDNSKNTLYLQMNSLRAEDTAVYYCAREGYRDYLWYFDLWGQGTLVTVSS
VL: B1 VL with S27T, G28D, I54T, S97Y, S98T, F99S
B6: 4-119 (antibody, V domains shown)
VH: EVQLVESGGGLVQPGGSLRLSCAASGFAFSSYAMGWFRQAPGKEREWVATINGDDYTYYADSVKGRFTISADNSKNTAYLQMNSLKPEDTAVYYCVATPGGYGLWGQGTLVTVSS
B7: 1-32 (antibody, V domains shown)
VH: B4 VH with I35Y
VL: QSALTQPASVSGSPGQSITISCTGTSSDVGGYNLVSWYQQHPGKAPKLMIYEGNKRPSGVSNRFSGSKSGNTASLTISGLQAEDEADYYCCSYAGSSTFPVVFGGGTKLTVL
B8: 1-17 (antibody, V domains shown)
VH: B2 VH
VL: B2 VL
B9: 1-12 (antibody, V domains shown)
VH: EVQLLESGGGLVQPGGSLRLSCAASGITFSSYAMSWVRQAPGKGLEWVSGISGSGGSTYYADSVKGRFTISRDNSKNTLYLQMNSLRAEDTAVYYCAKHGSGTIFGVVIAKYYFDYWGQGTLVTVSS
VL: B1 VL with G28D, S31H, I54T
B10: 1-42 (antibody, V domains shown)
VH: B9 VH with I27V, G50A, S52T
VL: B2 VL with I29V, S31R, T54G, G95S, R97S, Y99L

Molecular target: T1, SARS-CoV-2 S protein trimer (SARS-CoV-2, UniProt P0DTC2 16-1213)
Experiment: column DB/S-T (format not explained)

Compared with B1, B2 is 8.4-fold lower in Kd: 0.304 µM for the first, 0.0361 µM for the second. The second binds more tightly here.

Molecular target: T2, SARS-CoV-2 Spike Glycoprotein S1 (subunit 1) (SARS-CoV-2, UniProt P0DTC2 16-685)
T2 construct: also called S1 Monomer; SARS-CoV-2 S1
Experiment: column DC/S1 (format not explained); clone 1-27

With B3 the Kd was 5.52 µM.

Molecular target: T1, SARS-CoV-2 S protein trimer
Experiment: column DC/S-T (format not explained)

With B4 the Kd was 1740 µM.

Molecular target: SARS-CoV-2 S1 RBD (SARS-CoV-2, UniProt P0DTC2 319-541)
Experiment: not given

B5 showed an IC50 of 0.0143 µM.

Molecular target: human ACE2 (human, UniProt Q9BYF1 18-740)
Sequence (Q9BYF1 18-740 limits assumed): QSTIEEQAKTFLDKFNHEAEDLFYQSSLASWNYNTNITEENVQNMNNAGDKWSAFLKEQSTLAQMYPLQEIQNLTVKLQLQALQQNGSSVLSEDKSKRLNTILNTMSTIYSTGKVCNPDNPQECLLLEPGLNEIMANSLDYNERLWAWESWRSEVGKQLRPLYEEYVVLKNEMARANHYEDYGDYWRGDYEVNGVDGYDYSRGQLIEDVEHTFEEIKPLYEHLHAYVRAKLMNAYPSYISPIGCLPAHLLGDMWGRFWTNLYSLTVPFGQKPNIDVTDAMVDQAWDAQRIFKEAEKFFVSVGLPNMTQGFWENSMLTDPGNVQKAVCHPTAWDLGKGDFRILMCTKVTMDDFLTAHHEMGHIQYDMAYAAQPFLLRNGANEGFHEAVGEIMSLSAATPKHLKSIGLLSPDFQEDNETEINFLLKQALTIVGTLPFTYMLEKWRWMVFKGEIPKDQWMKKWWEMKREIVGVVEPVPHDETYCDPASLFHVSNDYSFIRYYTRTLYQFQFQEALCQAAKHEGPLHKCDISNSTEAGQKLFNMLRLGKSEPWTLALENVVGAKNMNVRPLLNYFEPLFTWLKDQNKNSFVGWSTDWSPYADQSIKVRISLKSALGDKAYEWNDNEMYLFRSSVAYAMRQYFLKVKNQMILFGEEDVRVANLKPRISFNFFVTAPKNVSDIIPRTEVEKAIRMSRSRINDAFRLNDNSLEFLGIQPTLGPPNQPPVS
Experiment: not given

B6 showed an IC50 of 0.00437 µM.

Molecular target: T2, SARS-CoV-2 Spike Glycoprotein S1 …
Experiment: column DC/S1 (format not explained)

Going from B4 to B7, the Kd rises from 0.0081 µM to 0.0148 µM (1.8-fold). The first binds more tightly here.

Work on B8 yielded a Kd of 6.65 µM.

Molecular target: T2, SARS-CoV-2 Spike Glycoprotein S1 …
Experiment: ELISA binding titration

Compared with B5, B9 is 4.8-fold lower in EC50: 0.0103 µM for the first, 0.00215 µM for the second.

Compared with B1, B3 is 3.5-fold lower in EC50: 0.000523 µM for the first, 0.000148 µM for the second. The second is the more potent here.

Going from B4 to B10, the EC50 falls from 0.0175 µM to 0.00792 µM (2.2-fold). The second is the more potent here.

Molecular target: T2, SARS-CoV-2 Spike Glycoprotein S1 …
Experiment: column Inhibitor IC50 (assay not explained)

Compared with B5, B9 is 43-fold lower in IC50: 1.43 µM for the first, 0.033 µM for the second.

Molecular target: T1, SARS-CoV-2 S protein trimer
Experiment: column Fc/S-T (format not explained)

B9 and B3 are within 1.5-fold of each other in Kd: 0.014 µM for the first, 0.0096 µM for the second.

Compared with B8, B2 is 1.9-fold higher in Kd: 0.01 µM for the first, 0.0193 µM for the second.

Molecular target: T2, SARS-CoV-2 Spike Glycoprotein S1 …
Experiment: screening phage ELISA, mean

Compared with B5, B9 is higher in “ELISA (Avg)” value: 21.7 for the first, 25.7 for the second.

Going from B1 to B3, the “ELISA (Avg)” value rises from 24.2 to 27.2.

Going from B4 to B7, the “ELISA (Avg)” value rises from 17.6 to 17.9.

Compared with B8, B2 is lower in “ELISA (Avg)” value: 27.4 for the first, 23.8 for the second.

Molecular target: T2, SARS-CoV-2 Spike Glycoprotein S1 …
Experiment: not given

B7 showed an IC50 of 0.0322 µM.

Molecular target: T2, SARS-CoV-2 Spike Glycoprotein S1 …
Experiment: antibody kinetics, sensorgrams with fits; column S1

Going from B9 to B10, the Kd rises from 0.0061 µM to 0.364 µM (60-fold).

Molecular target: T2, SARS-CoV-2 Spike Glycoprotein S1 …
Experiment: column Fc/S1 (format not explained)

Going from B9 to B3, the Kd rises from 0.0061 µM to 0.0096 µM (1.6-fold).

With B7 the Kd was 2.98 µM.

Molecular target: T2, SARS-CoV-2 Spike Glycoprotein S1 …
Experiment: screening phage ELISA, mean
Remark: another data set of the same source

Compared with B5, B9 is higher in “ELISA (Avg)” value: 21.7 for the first, 25.7 for the second.

First: B1
Second: B3
The “ELISA (Avg)” value of the first is lower: 24.2 for the first, 27.2 for the second.

Compared with B4, B7 is higher in “ELISA (Avg)” value: 17.6 for the first, 17.9 for the second.

First: B8
Second: B2
The “ELISA (Avg)” value of the first is higher: 27.4 for the first, 23.8 for the second.
